Here are results for six molecules from publication PMC3960148, “Atypical Response Regulator ChxR from Chlamydia trachomatis Is Structurally Poised for DNA Binding” (PLoS ONE, 2014).

Data set [1] concerns ChxR effector domain (ChxREff) (Chlamydia trachomatis). Briefly: EMSA. Particulars: EMSA as in ref 17 (buffer, salt, pH, temperature not given); 1 nM IR800-DNA with 50 nM-10 uM ChxREff, triplicate; 44 uM full-length ChxR (wild type, H186A) in …. On the technique in general: Mobility shift assays separate free from complexed probe on a gel.
Data set [2] deals with the molecule itself. Briefly: SAXS; full-length ChxR in solution at 1.25, 2.5 and 5.0 mg/ml, 20°C, 5% (v/v) glycerol added; curves extrapolated to infinite dilution; mass estimated from the Porod volume.
Data set [3] concerns the molecule itself. Briefly: SEC; proper folding of the full-length ChxR Ala mutants was assessed by size exclusion chromatography; the sentence on homodimers names no method. (SEC sorts molecules by how far they enter the pores of the column.)

Residue numbers refer to the chain shown, from its start.

Turning to DR2 site of chxR promoter, the Kd (as a rule, the constant that tells how readily two partners part at equilibrium) in data set [1] is 450 nM.

B1: full-length ChxR (natural protein, Chlamydia trachomatis, UniProt A0A0H3MDW1 1-227, looked up)
chain: MAGPKHVLLVSEHWDLFFQTKELLNPEEYRCTIGQQYKQELSADLVVCEYSLLPREIRSPKSLEGSFVLVLLDFFDEETSVDLLDRGFWYLIRPITPRILKSAISLFLSQHSLHSVPESIRFGPNVFYVLKLTVETPEGSVHLTPSESGILKRLLINKGQLCLRKHLLEEIKNHAKAIVARNVDVHIASLRKKLGAYGSRIVTLRGVGYLFSDDGDKKFSQQDTKLS
notes: ChxR, atypical OmpR/PhoB subfamily response regulator of Chlamydia trachomatis, full length; The calculated MW of the dimer is ~56 kDa; also called wild-type ChxR; not shown: His-tag (24 residues), N-terminal, kept
With B1, the stoichiometry N (usually the number of molecules, sites or subunits per partner or assembly) in data set [2] was 2.

B2: full-length ChxR with Ala substitution of Lys192 (natural protein)
chain: B1 chain with K192A
notes: ChxR of Chlamydia trachomatis, full-length protein with an Ala substitution; Made from the same plasmid as m1; also called Lys192 substitution; source: mutation introduced into the full-length ChxR plasmid (QuikChange II XL)
As to B2, in data set [3], the binding result is “binds”.

B3: full-length ChxR with Ala substitution of Arg205 (natural protein)
chain: B1 chain with R205A
notes: ChxR of Chlamydia trachomatis, full-length protein with an Ala substitution; Made from the same plasmid as m1; also called Arg205 substitution; source: mutation introduced into the full-length ChxR plasmid (QuikChange II XL)
Turning to B3, in data set [3], the binding result is on record as “binds”.

B4: full-length ChxR with Ala substitution of Asn182 (natural protein)
chain: B1 chain with N182A
notes: ChxR of Chlamydia trachomatis, full-length protein with an Ala substitution; Made from the same plasmid as m1; also called Asn182 substitution; source: mutation introduced into the full-length ChxR plasmid (QuikChange II XL)
As to B4, the binding result in data set [3] is listed as “binds”.

B5: ChxR^H186A (natural protein)
chain: B1 chain with H186A
notes: ChxR of Chlamydia trachomatis, full-length protein with an Ala substitution; Made from the same plasmid as m1; also called His186 substitution; source: mutation introduced into the full-length ChxR plasmid (QuikChange II XL)
For the molecule B5, the binding result in data set [3] is on record as “binds”.
